Measurements published in the supplement of paper PMC10567573.

B1: ESRRA (parent)
chain: LGVAQRSLPLQDELAFAEDLVLDE

Variants of: B1
Experiment: protein stability index of a GFP-peptide fusion (GPS, HEK-293T) (PSI 1-6); higher = more stable
Conditions: c terminus: a fixed tail appended
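Note: lentivirally expressed fusions sorted by FACS into six bins by GFP to DsRed ratio, PSI derived from sequencing read proportions per bin multiplied by bin number.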

Protein stability index: each site, then its substitutions
S7: I 2.98 | Q 3.18 | P 3.14 | D 3.25 | G 2.79 | E 2.57 | Y 2.37 | R 2.52 | F 2.32 | H 2.29 | C 2.4 | A 3.38 | K 3.13 | T 3.34 | V 2.94 | N 2.46 | M 2.84 | L 2.58 | W 1.78
P9: G 2.64 | K 3.07 | L 3.89 | H 3.69 | M 3.53 | S 3.49 | I 2.85 | A 4.37 | T 4.04 | F 3.54 | V 4.05 | N 4.18 | W 3.21 | C 4.38 | D 3.17 | E 3.45 | Q 4.66 | R 3.95 | Y 3.66
L1: D 4.27 | W 1.74 | Y 2.79 | T 3.5 | K 2.34 | H 2.98 | E 4.04 | N 2.58 | F 2.81 | A 2.99 | P 3.63 | Q 3.21 | G 3.19 | V 2.8 | S 3.75 | M 2.63 | R 2.18 | C 2.57 | I 2.2
L10: Q 5.45 | D 5.42 | P 4.33 | K 5.21 | R 5.44 | C 5.41 | M 3.54 | W 4.84 | F 4.97 | T 5.47 | S 5.19 | A 5.58 | I 4.7 | V 4.64 | H 5.26 | N 5.12 | E 4.36 | G 5.43 | Y 5.12
A4: K 2.58 | D 2.84 | E 3.45 | T 2.43 | P 3.1 | F 2.23 | I 1.59 | M 2.58 | S 2.81 | R 1.86 | Q 3.33 | W 2.3 | V 2.39 | Y 2.1 | H 2.21 | G 2.41 | C 2.02 | N 2.94 | L 2.42
A17: W 2.02 | N 5.35 | H 4.95 | K 5.25 | R 4.83 | M 4.88 | S 4.49 | D 4.99 | Y 3.39 | Q 5.4 | L 4.3 | C 4.9 | E 5.09 | T 3.8 | V 4.77 | I 3.96 | G 4.76 | F 4.19 | P 5.19
D12: N 3.19 | W 2.04 | S 2.01 | I 1.74 | A 3.13 | R 1.95 | K 2.98 | L 1.88 | G 3.59 | F 1.46 | M 2.37 | Q 1.7 | P 4.59 | C 1.92 | E 2.3 | H 2.17 | T 1.86 | V 2.22 | Y 1.8
G2: Q 2.98 | T 2.91 | D 3.02 | A 3.14 | W 1.79 | P 3.92 | E 3.17 | V 2.34 | I 1.89 | F 1.87 | K 1.98 | H 2.78 | M 2.36 | S 2.63 | Y 1.89 | L 2.21 | R 1.93 | C 2.69 | N 3.08
L8: C 3.2 | R 2.02 | H 2.88 | Q 3.72 | G 3.74 | P 3.71 | D 4.91 | F 2.33 | V 3.53 | I 3.03 | W 3.63 | T 3.24 | Y 1.86 | M 3.25 | E 5 | A 3.17 | N 2.91 | K 4.38 | S 2.83
A15: Y 4.29 | K 2.3 | F 4.42 | V 4.41 | I 4.41 | C 3.93 | T 3.26 | D 4.77 | M 3.49 | P 5.28 | G 4.74 | L 3.81 | N 3.85 | W 3.22 | R 1.82 | S 3.68 | E 4.74 | Q 3.65 | H 4.39
E13: F 3.12 | Y 3.5 | C 3.38 | S 4.45 | A 1.75 | V 2.64 | R 4.62 | H 4.44 | W 3.24 | Q 2.99 | D 2.5 | T 3.92 | P 4.71 | L 2.5 | N 5.15 | I 2.42 | M 3.16 | K 4.95 | G 4.81
Q5: T 2.39 | R 1.74 | N 2.63 | L 2.07 | K 2.39 | P 3.39 | C 1.76 | S 4.29 | F 1.87 | E 3.16 | I 2.17 | G 2.26 | H 2.71 | M 2.91 | Y 1.97 | W 2.07 | D 2.77 | A 2.51 | V 2.19
L14: K 5.15 | D 5.68 | Y 4.81 | S 5.66 | G 5.46 | W 4.37 | V 4.92 | T 5.5 | F 5.55 | I 5.15 | Q 5.27 | M 2.13 | H 5.43 | N 5.42 | A 5.24 | R 5.33 | P 5.38 | C 5.43 | E 5.5
V3: H 2.76 | K 2.39 | Q 2.84 | L 2.61 | S 2.64 | G 3.15 | N 3.1 | W 2.82 | E 4.36 | R 2.58 | C 2.86 | A 2.92 | P 2.73 | T 2.92 | D 3.69 | I 2.21 | F 2.31 | M 2.12 | Y 2.16
R6: Q 3.81 | H 2.55 | T 3.23 | A 3.14 | G 2.56 | V 3.09 | N 2.64 | K 2.92 | I 2.37 | F 2.26 | C 1.84 | D 4.23 | P 3.62 | Y 2.16 | W 2.17 | E 3.27 | S 2.98 | M 2.35 | L 2.34
F16: E 3.61 | V 4.09 | A 3.16 | R 3.03 | I 2.34 | W 2.45 | M 2.81 | S 4.66 | C 3.86 | T 5.04 | Y 2.93 | G 4.64 | N 3.63 | K 3.43 | D 3.47 | H 3.46 | L 2.96 | P 5.83 | Q 2.68
E18: I 2.56 | F 3.3 | C 4.09 | D 5.17 | M 3.84 | L 2.89 | K 4.58 | H 4.6 | A 4.25 | G 5 | N 4.9
Q11: N 4.12 | C 3.94 | K 2 | V 3.14 | R 2.94 | A 3.11 | F 4 | H 3.21 | D 4.92 | E 4.87 | M 3.65 | I 3.35 | W 2.71 | G 3.38 | S 4.37 | T 4.57 | P 4.66 | Y 3.12 | L 3.3
